Target: T1, ALFA-tagged target immobilised for SPR with NbALFA (TST-NEDD8-ALFA or GFP-ALFA) (synthetic (designed ALFA-tag))
T1 chain: SRLEEELRRRLTE
Assay: SPR

Kd: ~0.026 nM
B1: NbALFA (non-tagged) (VHH)
VHH: EVQLQESGGGLVQPGGSLRLSCTASGVTISALNAMAMGWYRQAPGERRVMVAAVSERGNAMYRESVQGRFTVTRDFTNKMVSLQMDNLKPEDTAVYYCHVLEDRVDSFHDYWGQGTQVTVSS

From doi:10.1101/640771 (bioRxiv, 2019)
